Test results as given in patent US20220332804A1 (CSL INNOVATION, published 2022).

Tests used:
Assay in all cases: SPR, KD relative to WT C2;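 also: biacore SPR at 37 °C, anti-C2 mAbs captured via immobilised goat anti-human IgG, C2 alanine or serine surface mutants as analytes, 1:1 model fitted, double-referenced sensograms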
human C2 A444S = target: T1, human C2 A444S (human, UniProt P06681 21-752)
T1 sequence: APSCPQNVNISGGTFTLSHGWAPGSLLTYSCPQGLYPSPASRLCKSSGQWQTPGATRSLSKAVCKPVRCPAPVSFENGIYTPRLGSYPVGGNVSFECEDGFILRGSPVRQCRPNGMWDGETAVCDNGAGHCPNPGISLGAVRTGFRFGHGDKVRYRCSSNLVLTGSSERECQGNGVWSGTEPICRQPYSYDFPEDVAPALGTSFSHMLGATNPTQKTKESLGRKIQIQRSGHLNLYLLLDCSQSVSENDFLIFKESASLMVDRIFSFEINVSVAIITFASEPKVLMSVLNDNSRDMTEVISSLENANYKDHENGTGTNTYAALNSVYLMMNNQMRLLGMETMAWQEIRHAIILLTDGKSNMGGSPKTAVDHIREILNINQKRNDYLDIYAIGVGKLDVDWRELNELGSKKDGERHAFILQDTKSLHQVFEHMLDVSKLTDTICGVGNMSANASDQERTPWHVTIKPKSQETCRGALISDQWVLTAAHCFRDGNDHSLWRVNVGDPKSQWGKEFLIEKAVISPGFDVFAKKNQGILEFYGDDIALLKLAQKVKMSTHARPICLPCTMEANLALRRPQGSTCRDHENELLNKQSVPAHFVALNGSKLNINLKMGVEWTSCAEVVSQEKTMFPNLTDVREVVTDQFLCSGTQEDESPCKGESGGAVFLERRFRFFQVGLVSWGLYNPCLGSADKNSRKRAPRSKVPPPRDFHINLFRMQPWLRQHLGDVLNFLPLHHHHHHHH
Procedure: (§1) Surface plasmon resonance (SPR, Biacore) was used for all binding affinity analyses. In brief, goat anti-human IgG was directly immobilised onto the carboxymethyl dextran surface of CM5 sensorchips to approximately 12,000 RU using standard NHS/EDC chemistry at pH 5. The immobilised antibody surface was pre-conditioned with ten injections of polyclonal human IgG (Privigen 60 s) prepared at 1 μg/mL. Ligands (anti-C2 mAbs) were captured at the beginning of each cycle as described below. An adjacent spot or flow cell in which only Polyclonal IgG was capture was used as a reference surface. The goat anti-human IgG Fc antibody surface was regenerate in 100 mM H3PO4, injected for 45 seconds at the end of each cycle. Experiments were performed at 37° C. and the flow rate of each experiment was kept constant at 30 μL/min.
(§2) Sensogram data was double-referenced against a reference anti-IgG surface (i.e. minus anti-C2 mAb) and blank buffer injections obtained within each experiment. The binding data was fit to 1:1 (kinetic or steady-state) model using local Rmax and null refraction index (RI=0) when appropriate. Buffers and solutions were filtered (0.22 μm) prior to use.

human C2 N621A = target: T2, human C2 N621A (human, UniProt P06681 21-752)
T2 sequence: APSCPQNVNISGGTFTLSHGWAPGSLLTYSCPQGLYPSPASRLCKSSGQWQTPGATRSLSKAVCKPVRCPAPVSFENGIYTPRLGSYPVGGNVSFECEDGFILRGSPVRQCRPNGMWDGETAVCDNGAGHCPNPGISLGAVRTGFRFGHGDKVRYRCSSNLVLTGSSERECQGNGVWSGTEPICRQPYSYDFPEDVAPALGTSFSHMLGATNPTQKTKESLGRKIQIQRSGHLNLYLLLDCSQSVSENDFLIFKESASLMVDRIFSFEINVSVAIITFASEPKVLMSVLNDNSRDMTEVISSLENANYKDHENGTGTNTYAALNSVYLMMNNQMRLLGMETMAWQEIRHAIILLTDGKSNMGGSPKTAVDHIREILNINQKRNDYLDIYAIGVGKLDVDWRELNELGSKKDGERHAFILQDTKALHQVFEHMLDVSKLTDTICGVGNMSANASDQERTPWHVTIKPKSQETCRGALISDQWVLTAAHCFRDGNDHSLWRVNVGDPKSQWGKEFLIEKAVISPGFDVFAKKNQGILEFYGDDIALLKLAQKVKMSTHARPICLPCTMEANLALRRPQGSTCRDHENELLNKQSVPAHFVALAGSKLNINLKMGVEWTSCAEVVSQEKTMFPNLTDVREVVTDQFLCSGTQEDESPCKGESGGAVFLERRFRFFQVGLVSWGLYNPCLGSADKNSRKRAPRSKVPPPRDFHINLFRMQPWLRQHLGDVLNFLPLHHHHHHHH
Procedure: as §1, §2

human C2 R434A = target: T3, human C2 R434A (human, UniProt P06681 21-752)
T3 sequence: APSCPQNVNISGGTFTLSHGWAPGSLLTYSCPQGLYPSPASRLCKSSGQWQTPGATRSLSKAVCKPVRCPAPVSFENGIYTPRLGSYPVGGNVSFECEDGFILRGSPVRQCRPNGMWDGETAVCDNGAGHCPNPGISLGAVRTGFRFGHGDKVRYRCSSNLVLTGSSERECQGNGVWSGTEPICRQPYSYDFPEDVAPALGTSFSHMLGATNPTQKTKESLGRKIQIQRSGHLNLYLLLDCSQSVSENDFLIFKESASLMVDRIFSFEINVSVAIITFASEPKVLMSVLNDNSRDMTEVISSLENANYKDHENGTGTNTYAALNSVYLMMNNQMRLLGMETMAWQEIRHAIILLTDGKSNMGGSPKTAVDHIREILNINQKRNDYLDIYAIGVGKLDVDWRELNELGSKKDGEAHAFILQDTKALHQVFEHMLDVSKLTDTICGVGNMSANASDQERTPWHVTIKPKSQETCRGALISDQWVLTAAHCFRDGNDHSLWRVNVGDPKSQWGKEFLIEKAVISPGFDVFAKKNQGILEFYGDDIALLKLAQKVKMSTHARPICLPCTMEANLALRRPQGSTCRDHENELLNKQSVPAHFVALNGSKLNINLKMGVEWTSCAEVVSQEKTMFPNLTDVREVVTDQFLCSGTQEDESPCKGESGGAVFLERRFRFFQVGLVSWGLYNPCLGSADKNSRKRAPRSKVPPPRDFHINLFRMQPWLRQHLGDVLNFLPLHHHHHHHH
Procedure: as §1, §2

human C2 T491A = target: T4, human C2 T491A (human, UniProt P06681 21-752)
T4 sequence: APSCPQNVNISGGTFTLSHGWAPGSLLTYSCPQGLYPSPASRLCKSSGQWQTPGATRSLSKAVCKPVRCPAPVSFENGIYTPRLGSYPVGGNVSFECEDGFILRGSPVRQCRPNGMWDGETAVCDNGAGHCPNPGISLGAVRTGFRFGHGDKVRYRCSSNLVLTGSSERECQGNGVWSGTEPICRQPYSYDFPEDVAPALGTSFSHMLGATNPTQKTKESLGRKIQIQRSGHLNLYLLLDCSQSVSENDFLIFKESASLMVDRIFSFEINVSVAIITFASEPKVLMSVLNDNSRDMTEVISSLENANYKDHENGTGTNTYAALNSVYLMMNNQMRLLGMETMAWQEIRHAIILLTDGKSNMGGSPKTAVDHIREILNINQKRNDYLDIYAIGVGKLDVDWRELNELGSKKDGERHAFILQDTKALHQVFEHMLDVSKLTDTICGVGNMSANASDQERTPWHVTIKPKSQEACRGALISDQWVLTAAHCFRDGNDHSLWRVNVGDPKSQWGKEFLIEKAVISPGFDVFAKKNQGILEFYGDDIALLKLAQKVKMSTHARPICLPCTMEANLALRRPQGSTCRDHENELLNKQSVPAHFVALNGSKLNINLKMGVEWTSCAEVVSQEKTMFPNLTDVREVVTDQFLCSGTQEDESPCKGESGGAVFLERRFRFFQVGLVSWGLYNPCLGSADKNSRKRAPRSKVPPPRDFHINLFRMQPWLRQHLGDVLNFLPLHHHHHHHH
Procedure: as §1, §2

B1: RF16-226 (antibody, human IgG4 S228P, lambda)
heavy: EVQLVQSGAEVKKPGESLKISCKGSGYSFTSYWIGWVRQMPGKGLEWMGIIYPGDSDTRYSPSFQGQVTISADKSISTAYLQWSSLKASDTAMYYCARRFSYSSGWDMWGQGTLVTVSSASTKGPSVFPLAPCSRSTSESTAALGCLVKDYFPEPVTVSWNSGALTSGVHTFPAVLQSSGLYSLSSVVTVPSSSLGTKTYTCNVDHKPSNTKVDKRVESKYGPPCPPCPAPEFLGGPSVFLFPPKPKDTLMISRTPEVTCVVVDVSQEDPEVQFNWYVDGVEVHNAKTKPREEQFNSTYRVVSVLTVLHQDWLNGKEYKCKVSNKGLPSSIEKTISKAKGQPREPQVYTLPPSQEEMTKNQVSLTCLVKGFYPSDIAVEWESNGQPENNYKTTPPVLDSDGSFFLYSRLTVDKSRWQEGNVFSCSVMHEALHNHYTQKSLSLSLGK
light: SYELTQPPSVSVSPGQTARITCSGDALTSKYVAWYQQKSGLAPLLVIYEDTRRPSGIPAKFSGSSSGSVATLTISGAHGDDEADYYCYSTDASGHQRVFGGGTKLTVLSQPKAAPSVTLFPPSSEELQANKATLVCLISDFYPGAVTVAWKADGSPVKAGVETTKPSKQSNNKYAASSYLSLTPEQWKSHRSYSCQVTHEGSTVEKTVAPTECS
notes: pH-dependent anti-C2 antibody from a phage display library; also called WT
- Fold diff (human C2 A444S): 2 fold
- Fold diff (human C2 N621A): 5 fold
- Fold diff (human C2 R434A): 14 fold
- Fold diff (human C2 T491A): 2 fold
